Test results reported in article PMC10333884, “Large‐scale phosphomimetic screening identifies phospho‐modulated motif‐based protein interactions” (Molecular Systems Biology, 2023).

Target: GABARAPL2 (human) (UniProt P60520)
Experiment: fluorescence polarisation
Settings: not given

Chain of GABARAPL2 (human) (P60520 whole entry): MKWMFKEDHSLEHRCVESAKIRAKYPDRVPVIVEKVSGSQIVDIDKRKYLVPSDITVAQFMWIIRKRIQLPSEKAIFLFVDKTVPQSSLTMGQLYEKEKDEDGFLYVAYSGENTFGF
Chain of DAXX_(606–616), phosphomimetic (E) (Q9UER7 whole entry, looked up, tested part not stated): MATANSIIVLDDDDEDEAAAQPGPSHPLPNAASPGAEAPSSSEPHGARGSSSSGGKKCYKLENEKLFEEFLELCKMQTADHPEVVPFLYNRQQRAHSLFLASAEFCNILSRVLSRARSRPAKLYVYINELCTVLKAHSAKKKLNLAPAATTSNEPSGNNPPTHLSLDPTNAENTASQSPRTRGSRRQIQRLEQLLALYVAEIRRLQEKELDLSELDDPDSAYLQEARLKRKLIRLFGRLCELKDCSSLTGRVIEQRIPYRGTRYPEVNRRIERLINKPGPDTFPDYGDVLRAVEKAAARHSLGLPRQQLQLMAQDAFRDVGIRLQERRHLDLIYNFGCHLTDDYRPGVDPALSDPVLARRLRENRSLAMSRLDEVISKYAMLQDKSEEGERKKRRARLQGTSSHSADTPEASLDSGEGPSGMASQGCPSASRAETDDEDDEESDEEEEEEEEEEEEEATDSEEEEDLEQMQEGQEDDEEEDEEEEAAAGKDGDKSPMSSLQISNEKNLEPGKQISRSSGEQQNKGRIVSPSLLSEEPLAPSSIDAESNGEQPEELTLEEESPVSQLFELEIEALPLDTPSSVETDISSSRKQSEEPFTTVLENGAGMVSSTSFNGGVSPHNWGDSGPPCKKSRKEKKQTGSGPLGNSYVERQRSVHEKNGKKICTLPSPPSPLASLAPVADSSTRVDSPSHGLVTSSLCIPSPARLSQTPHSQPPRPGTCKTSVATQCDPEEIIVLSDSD
Chain of DAXX_(606–616), wild‐type (Q9UER7 whole entry, looked up, tested part not stated): as above
Chain of DAXX_(606–616), phosphorylated (pS) (Q9UER7 whole entry, looked up, tested part not stated): as above

| Substance | Kd [µM] |
| --- | --- |
| ATG4C_(444–458), phosphorylated (pS) (from UniProt Q96DT6 444-458) (peptide) | 0.1 |
| DLGAP4_(907–922), phosphomimetic (E) (from UniProt Q9Y2H0 907-922) (peptide) | 260 |
| DLGAP4_(907–922), phosphorylated (pS) (from UniProt Q9Y2H0 907-922) (peptide) | 150 |
| DLGAP4_(907–922), wild‐type (from UniProt Q9Y2H0 907-922) (peptide) | 174 |

Target: PDCD6IP Alix V domain (human)
Experiment: fluorescence polarisation; displacement of a FITC-labelled probe peptide (5 nM in the measurement) from the protein domain (1-2 fold over the probe's KD) by a dilution series of unlabelled peptide; room temperature; 50 mM sodium phosphate pH 7.4; KD calculated from the displacement curve; for KPNA4 ARM one probe for each pocket
Settings: not given

| Substance | Kd [µM] |
| --- | --- |
| FOXK1_(212–227), phosphomimetic (E) (from UniProt P85037 212-227) (peptide) | 13 |
| FOXK1_(212–227), phosphorylated (pS) (from UniProt P85037 212-227) (peptide) | 13 |
| FOXK1_(212–227), wild‐type (from UniProt P85037 212-227) (peptide) | 25 |
| OTUD5_(507–522), phosphomimetic (E) (from UniProt Q96G74 507-522) (peptide) | 88 |
| OTUD5_(507–522), phosphorylated (pS) (from UniProt Q96G74 507-522) (peptide) | 116 |
| OTUD5_(507–522), wild‐type (from UniProt Q96G74 507-522) (peptide) | 68 |

Target: Clathrin N-terminal domain (NTD) (human) (UniProt Q00610)
Sequence (Q00610 1-364): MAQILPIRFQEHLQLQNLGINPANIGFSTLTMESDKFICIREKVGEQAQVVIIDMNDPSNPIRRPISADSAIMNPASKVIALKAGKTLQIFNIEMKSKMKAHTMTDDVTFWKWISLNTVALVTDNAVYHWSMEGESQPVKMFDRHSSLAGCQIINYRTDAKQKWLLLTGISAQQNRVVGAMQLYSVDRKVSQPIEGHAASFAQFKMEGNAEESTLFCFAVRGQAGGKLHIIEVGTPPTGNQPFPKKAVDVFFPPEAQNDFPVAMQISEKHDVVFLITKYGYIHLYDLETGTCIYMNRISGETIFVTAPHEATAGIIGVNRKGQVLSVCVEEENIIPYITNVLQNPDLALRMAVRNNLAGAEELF
Experiment: as above
Settings: not given

| Substance | Kd [µM] |
| --- | --- |
| GTSE1_(692–707) peptide, unphosphorylated | 100 |
| pS839 HURP_(826–846) peptide (from UniProt Q15398 826-846) | < 3 |

Target: TSG101 UEV (human) (UniProt Q99816)
Sequence (Q99816 2-145): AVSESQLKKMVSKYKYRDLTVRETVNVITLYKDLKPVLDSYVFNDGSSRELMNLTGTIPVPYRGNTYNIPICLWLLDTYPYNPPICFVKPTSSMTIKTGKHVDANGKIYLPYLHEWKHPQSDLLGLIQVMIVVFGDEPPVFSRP
Experiment: as above
Settings: not given

| Substance | Kd [µM] |
| --- | --- |
| GJA1_(269–283), phosphomimetic (E) (from UniProt P17302 269-283) (peptide) | 115 |
| GJA1_(269–283), phosphorylated (pS) (from UniProt P17302 269-283) (peptide) | 209 |
| GJA1_(269–283), wild‐type (from UniProt P17302 269-283) (peptide) | 232 |
| PDCD6IP_(711–725), wild‐type (from UniProt Q8WUM4 711-725) (peptide) | 16 |
| PIP4P2_(17–32), phosphomimetic (E) (from UniProt Q8N4L2 17-32) (peptide) | 18 |
| PIP4P2_(17–32), phosphorylated (pS) (from UniProt Q8N4L2 17-32) (peptide) | 16 |
| PIP4P2_(17–32), wild‐type (from UniProt Q8N4L2 17-32) (peptide) | 14 |

Target: GGA1 VHS (human) (UniProt Q9UJY5)
Sequence (Q9UJY5 17-147): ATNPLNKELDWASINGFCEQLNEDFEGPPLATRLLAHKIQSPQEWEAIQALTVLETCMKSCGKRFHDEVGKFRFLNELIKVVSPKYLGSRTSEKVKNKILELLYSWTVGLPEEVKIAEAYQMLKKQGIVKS
Experiment: as above
Settings: not given

| Substance | Kd [µM] |
| --- | --- |
| JUN_(59–73), phosphorylated (pS) (from UniProt P05412 59-73) (peptide) | 1900 |
| JUN_(59–73), wild‐type (from UniProt P05412 59-73) (peptide) | 470 |
| RNF11_(6–21), phosphomimetic (E) (from UniProt Q9Y3C5 6-21) (peptide) | 1000 |
| RNF11_(6–21), phosphorylated (pS) (from UniProt Q9Y3C5 6-21) (peptide) | 31 |
| RNF11_(6–21), wild‐type (from UniProt Q9Y3C5 6-21) (peptide) | 420 |

Target: KPNA4 ARM (human)
Experiment: as above
Settings: not given

| KD, major pocket [µM] | KD, minor pocket [µM] | Substance |
| --- | --- | --- |
| 0.8 | 61 | RANBP3_(114–129), phosphomimetic (E) at p + 5 (from UniProt Q9H6Z4 114-129) (peptide) |
| 0.24 | 14 | SQSTM1_(258–272), wild‐type (from UniProt Q13501 258-272) (peptide) |
| 0.63 | 2.8 | pS116 CDC25A_(114–125) (from UniProt P30304 114-125) (peptide) |

Continued, substance first:

| Substance | KD, major pocket [µM] | KD, minor pocket [µM] |
| --- | --- | --- |
| CDC25A_(114–125), phosphomimetic (E) (from UniProt P30304 114-125) (peptide) | 0.75 | 2.3 |
| CDC25A_(114–125), wild‐type (from UniProt P30304 114-125) (peptide) | 8.8 | 0.2 |
| RANBP3_(114–129), phosphomimetic (E) at p + 6 (from UniProt Q9H6Z4 114-129) (peptide) | 0.14 | 80 |
| RANBP3_(114–129), phosphorylated at p + 5 (from UniProt Q9H6Z4 114-129) (peptide) | 1.13 | 167 |
| RANBP3_(114–129), phosphorylated at p + 6 (from UniProt Q9H6Z4 114-129) (peptide) | 0.22 | 20 |
| RANBP3_(114–129), wild‐type (from UniProt Q9H6Z4 114-129) (peptide) | 0.15 | 68 |
| SQSTM1_(258–272), phosphomimetic (E) (from UniProt Q13501 258-272) (peptide) | 5.3 | 41 |
| SQSTM1_(258–272), phosphorylated (pS) (from UniProt Q13501 258-272) (peptide) | 50 | 248 |

Target: RANBP2 RanBD4 (human)
Experiment: as above
Settings: not given

| Kd [µM] | Substance |
| --- | --- |
| 1080 | INTS6_(145–159), phosphomimetic (E) (from UniProt Q9UL03 145-159) (peptide) |
| 334 | INTS6_(145–159), wild‐type (from UniProt Q9UL03 145-159) (peptide) |

Second part, the substance before the results:

| Substance | Kd [µM] |
| --- | --- |
| DHX38_(260–275), phosphorylated (pS) (from UniProt Q92620 260-275) (peptide) | 167 |
| DHX38_(260–275), wild‐type (from UniProt Q92620 260-275) (peptide) | 1500 |
| INTS6_(145–159), phosphorylated (pS) (from UniProt Q9UL03 145-159) (peptide) | 733 |

Target: AP2 μ2 (human)
Experiment: as above
Settings: not given

| Kd [µM] | Substance |
| --- | --- |
| 2.05 | PCBP1_(179–194), phosphomimetic (E) (from UniProt Q15365 179-194) (peptide) |
| 0.67 | PCBP1_(179–194), phosphorylated (pS) (from UniProt Q15365 179-194) (peptide) |

More lines, now with the values behind:

| Substance | Kd [µM] |
| --- | --- |
| BAIAPL1_(392–407), phosphomimetic (E) (from UniProt Q9UHR4 392-407) (peptide) | 0.49 |
| BAIAPL1_(392–407), phosphorylated (pS) (from UniProt Q9UHR4 392-407) (peptide) | 0.93 |
| BAIAPL1_(392–407), wild‐type (from UniProt Q9UHR4 392-407) (peptide) | 1.29 |
| PCBP1_(179–194), wild‐type (from UniProt Q15365 179-194) (peptide) | 3.7 |

Target: SNX27 PDZ (human) (UniProt Q96L92)
Experiment: as above
Settings: not given

| Kd [µM] | Substance |
| --- | --- |
| 111 | CDC25C_(30–44), wild‐type (from UniProt P30307 30-44) (peptide) |
| 300 | DAXX_(606–616), wild‐type (from UniProt Q9UER7 606-616) (peptide) |

The remaining lines, values behind:

| Substance | Kd [µM] |
| --- | --- |
| CDC25C_(30–44), phosphomimetic (E) (from UniProt P30307 30-44) (peptide) | 680 |
| CDC25C_(30–44), phosphorylated (pS) (from UniProt P30307 30-44) (peptide) | 395 |
| DAXX_(606–616), phosphomimetic (E) (from UniProt Q9UER7 606-616) (peptide) | 23 |
| DAXX_(606–616), phosphorylated (pS) (from UniProt Q9UER7 606-616) (peptide) | 96 |

Target: MAP1LC3B (human) (UniProt Q9GZQ8)
Experiment: as above
Settings: not given

| Substance | Kd [µM] |
| --- | --- |
| ATG4C_(444–458), phosphorylated (pS) (from UniProt Q96DT6 444-458) (peptide) | 1.9 |
| TPD52L2_(91–106), phosphorylated (pS) (from UniProt O43399 91-106) (peptide) | 61 |
| TPD52L2_(91–106), wild‐type (from UniProt O43399 91-106) (peptide) | 760 |

Target: KPNA4 ARM ARM domain (UniProt O00629)
Experiment: FP displacement, major-pocket FITC probe
Settings: reference: unphosphorylated peptide; sites S116

| Substance | KD |
| --- | --- |
| CDC25A 114-125 (from UniProt P30304) pS116 peptide | stronger; reference 8.8 ± 0.2 |

Same assay, conditions: reference: unphosphorylated peptide; sites T124

| Substance | KD |
| --- | --- |
| RANBP3 114-129 (from UniProt Q9H6Z4) pT124 peptide (p+5) | weaker; reference 0.15 ± 0.01 |
